Measurements: article PMC7144476 (Molecular plant, 2015)

Molecular target: MBP-BSU1 (Arabidopsis, UniProt Q9LR78 1-793)
Assay: pull-down

Chain of MBP-BSU1 (Q9LR78 whole entry): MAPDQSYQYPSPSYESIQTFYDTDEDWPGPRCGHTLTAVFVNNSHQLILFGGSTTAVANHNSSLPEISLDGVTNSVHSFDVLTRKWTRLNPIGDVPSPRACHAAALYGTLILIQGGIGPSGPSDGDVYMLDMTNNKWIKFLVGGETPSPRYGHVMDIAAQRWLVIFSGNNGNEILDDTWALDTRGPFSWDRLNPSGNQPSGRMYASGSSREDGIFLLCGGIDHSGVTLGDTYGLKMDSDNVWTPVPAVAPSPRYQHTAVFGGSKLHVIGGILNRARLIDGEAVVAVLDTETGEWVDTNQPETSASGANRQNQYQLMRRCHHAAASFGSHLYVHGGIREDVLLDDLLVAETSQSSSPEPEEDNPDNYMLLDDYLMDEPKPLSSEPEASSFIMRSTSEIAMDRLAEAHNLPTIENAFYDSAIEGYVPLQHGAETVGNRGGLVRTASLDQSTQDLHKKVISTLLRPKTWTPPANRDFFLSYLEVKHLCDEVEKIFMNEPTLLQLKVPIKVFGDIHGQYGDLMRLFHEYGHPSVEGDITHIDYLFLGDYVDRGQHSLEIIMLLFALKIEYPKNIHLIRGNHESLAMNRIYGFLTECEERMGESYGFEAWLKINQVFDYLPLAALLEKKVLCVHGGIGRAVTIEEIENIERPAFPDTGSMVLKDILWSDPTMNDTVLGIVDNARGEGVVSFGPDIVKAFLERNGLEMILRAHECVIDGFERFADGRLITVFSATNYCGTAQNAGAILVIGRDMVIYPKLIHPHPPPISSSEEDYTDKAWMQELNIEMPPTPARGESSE

B1: BSK1-myc (natural protein, UniProt Q944A7 1-512, looked up)
chain: MGCCQSLFSGDNPLGKDGVQPQPLSQNNHGGATTADNGGSGGASGVGGGGGGGGIPSFSEFSFADLKAATNNFSSDNIVSESGEKAPNLVYKGRLQNRRWIAVKKFTKMAWPEPKQFAEEAWGVGKLRHNRLANLIGYCCDGDERLLVAEFMPNDTLAKHLFHWENQTIEWAMRLRVGYYIAEALDYCSTEGRPLYHDLNAYRVLFDEDGDPRLSCFGLMKNSRDGKSYSTNLAYTPPEYLRNGRVTPESVTYSFGTVLLDLLSGKHIPPSHALDMIRGKNIILLMDSHLEGKFSTEEATVVVELASQCLQYEPRERPNTKDLVATLAPLQTKSDVPSYVMLGIKKQEEAPSTPQRPLSPLGEACSRMDLTAIHQILVMTHYRDDEGTNELSFQEWTQQMKDMLDARKRGDQSFREKDFKTAIDCYSQFIDVGTMVSPTVFGRRSLCYLLCDQPDAALRDAMQAQCVYPDWPTAFYMQSVALAKLNMNTDAADMLNEAAQLEEKRQRGGRGS
B1: binds.
